In experiment [1] the target is P-selectin expressed on Chinese hamster ovary cells (CHO-P) (UniProt P16109). Kind of experiment: flow cytometry on cells. A general note: Flow cytometry measures light scatter and fluorescence of single cells or particles in a stream.
Experiment [2] has the same target. Kind of experiment: flow cytometry on cells. This is another data set of the same source.
Experiment [3] shares this target. Kind of experiment: flow cytometry on cells. This is another data set of the same source.
In experiment [4] the target is Recombinant human P-selectin (recombinant ectodomain of P-selectin) (human) (UniProt P16109). Kind of experiment: SPR. (SPR reads the build-up and loss of mass on a sensor chip optically.)

The values that follow come from publication PMC2213112.

Like-named read-outs stand apart in the source and are kept apart here.

On to “FITC-conjugated purified C3b (from UniProt P01024 749-1663; P01024 749-1663) (natural protein)”, for which the increase of binding over the sample without calcium or magnesium in experiment [1] is 33%; in experiment [2], 63%; in experiment [3], 55%. Moreover, in experiment [1], the mean fluorescence intensity (MFI) of C3b-FITC worked out at 476.

Consider “purified C3b (from UniProt P01024 749-1663; P01024 749-1663) (natural protein)”, for which the Kd (usually the equilibrium constant for the complex coming apart) in experiment [4] stood at 1000 nM.
